The labels stand for the following.
B1: ZNF326: host protein, UniProt Q5BKZ1 (protein, UniProt Q5BKZ1 1-582, looked up)
DBIRD complex subunit ZNF326: MDFEDDYTHSACRNTYQGFNGMDRDYGPGSYGGMDRDYGHGSYGGQRSMDSYLNQSYGMDNHSGGGGGSRFGPYESYDSRSSLGGRDLYRSGYGFNEPEQSRFGGSYGGRFESSYRNSLDSFGGRNQGGSSWEAPYSRSKLRPGFMEDRGRENYSSYSSFSSPHMKPAPVGSRGRGTPAYPESTFGSRNYDAFGGPSTGRGRGRGHMGDFGSIHRPGIVVDYQNKSTNVTVAAARGIKRKMMQPFNKPSGTFIKKPKLAKPMEKISLSKSPTKTDPKNEEEEKRRIEARREKQRRRREKNSEKYGDGYRMAFTCSFCKFRTFEEKDIELHLESSSHQETLDHIQKQTKFDKVVMEFLHECMVNKFKKTSIRKQQTNNQTEVVKIIEKDVMEGVTVDDHMMKVETVHCSACSVYIPALHSSVQQHLKSPDHIKGKQAYKEQIKRESVLTATSILNNPIVKARYERFVKGENPFEIQDHSQDQQIEGDEEDEEKIDEPIEEEEDEDEEEEAEEVGEVEEVEEVEEVREGGIEGEGNIQGVGEGGEVGVVGEVEGVGEVEEVEELEEETAKEEPADFPVEQPEEN
B2: DKC1 (protein, UniProt O60832 2-514, looked up)
H/ACA ribonucleoprotein …: ADAEVIILPKKHKKKKERKSLPEEDVAEIQHAEEFLIKPESKVAKLDTSQWPLLLKNFDKLNVRTTHYTPLACGSNPLKREIGDYIRTGFINLDKPSNPSSHEVVAWIRRILRVEKTGHSGTLDPKVTGCLIVCIERATRLVKSQQSAGKEYVGIVRLHNAIEGGTQLSRALETLTGALFQRPPLIAAVKRQLRVRTIYESKMIEYDPERRLGIFWVSCEAGTYIRTLCVHLGLLLGVGGQMQELRRVRSGVMSEKDHMVTMHDVLDAQWLYDNHKDESYLRRVVYPLEKLLTSHKRLVMKDSAVNAICYGAKIMLPGVLRYEDGIEVNQEIVVITTKGEAICMAIALMTTAVISTCDHGIVAKIKRVIMERDTYPRKWGLGPKASQKKLMIKQGLLDKHGKPTDSTPATWKQEYVDYSESAKKEVVAEVVKAPQVVAEAAKTAKRKRESESESDETPPAAPQLIKKEKKKSKKDKKAKAGLESGAEPGDGDSDTTKKKKKKKKAKEVELVSE
B3: TOP1 (protein, UniProt P11387 2-765, looked up)
DNA topoisomerase 1: SGDHLHNDSQIEADFRLNDSHKHKDKHKDREHRHKEHKKEKDREKSKHSNSEHKDSEKKHKEKEKTKHKDGSSEKHKDKHKDRDKEKRKEEKVRASGDAKIKKEKENGFSSPPQIKDEPEDDGYFVPPKEDIKPLKRPRDEDDADYKPKKIKTEDTKKEKKRKLEEEEDGKLKKPKNKDKDKKVPEPDNKKKKPKKEEEQKWKWWEEERYPEGIKWKFLEHKGPVFAPPYEPLPENVKFYYDGKVMKLSPKAEEVATFFAKMLDHEYTTKEIFRKNFFKDWRKEMTNEEKNIITNLSKCDFTQMSQYFKAQTEARKQMSKEEKLKIKEENEKLLKEYGFCIMDNHKERIANFKIEPPGLFRGRGNHPKMGMLKRRIMPEDIIINCSKDAKVPSPPPGHKWKEVRHDNKVTWLVSWTENIQGSIKYIMLNPSSRIKGEKDWQKYETARRLKKCVDKIRNQYREDWKSKEMKVRQRAVALYFIDKLALRAGNEKEEGETADTVGCCSLRVEHINLHPELDGQEYVVEFDFLGKDSIRYYNKVPVEKRVFKNLQLFMENKQPEDDLFDRLNTGILNKHLQDLMEGLTAKVFRTYNASITLQQQLKELTAPDENIPAKILSYNRANRAVAILCNHQRAPPKTFEKSMMNLQTKIDAKKEQLADARRDLKSAKADAKVMKDAKTKKVVESKKKAVQRLEEQLMKLEVQATDREENKQIALGTSKLNYLDPRITVAWCKKWGVPIEKIYNKTQREKFAWAIDMADEDYEF
B4: KRT10 (protein, UniProt P13645 1-584, looked up)
Keratin, type I cytoskeletal …: MSVRYSSSKHYSSSRSGGGGGGGGCGGGGGVSSLRISSSKGSLGGGFSSGGFSGGSFSRGSSGGGCFGGSSGGYGGLGGFGGGSFRGSYGSSSFGGSYGGIFGGGSFGGGSFGGGSFGGGGFGGGGFGGGFGGGFGGDGGLLSGNEKVTMQNLNDRLASYLDKVRALEESNYELEGKIKEWYEKHGNSHQGEPRDYSKYYKTIDDLKNQILNLTTDNANILLQIDNARLAADDFRLKYENEVALRQSVEADINGLRRVLDELTLTKADLEMQIESLTEELAYLKKNHEEEMKDLRNVSTGDVNVEMNAAPGVDLTQLLNNMRSQYEQLAEQNRKDAEAWFNEKSKELTTEIDNNIEQISSYKSEITELRRNVQALEIELQSQLALKQSLEASLAETEGRYCVQLSQIQAQISALEEQLQQIRAETECQNTEYQQLLDIKIRLENEIQTYRSLLEGEGSSGGGGRGGGSFGGGYGGGSSGGGSSGGGHGGGHGGSSGGGYGGGSSGGGSSGGGYGGGSSSGGHGGSSSGGYGGGSSGGGGGGYGGGSSGGGSSSGGGYGGGSSSGGHKSSSSGSVGESSSKGPRY
B5: ADAR (protein, UniProt P55265 1-1226, looked up)
Double-stranded RNA-specific …: MNPRQGYSLSGYYTHPFQGYEHRQLRYQQPGPGSSPSSFLLKQIEFLKGQLPEAPVIGKQTPSLPPSLPGLRPRFPVLLASSTRGRQVDIRGVPRGVHLRSQGLQRGFQHPSPRGRSLPQRGVDCLSSHFQELSIYQDQEQRILKFLEELGEGKATTAHDLSGKLGTPKKEINRVLYSLAKKGKLQKEAGTPPLWKIAVSTQAWNQHSGVVRPDGHSQGAPNSDPSLEPEDRNSTSVSEDLLEPFIAVSAQAWNQHSGVVRPDSHSQGSPNSDPGLEPEDSNSTSALEDPLEFLDMAEIKEKICDYLFNVSDSSALNLAKNIGLTKARDINAVLIDMERQGDVYRQGTTPPIWHLTDKKRERMQIKRNTNSVPETAPAAIPETKRNAEFLTCNIPTSNASNNMVTTEKVENGQEPVIKLENRQEARPEPARLKPPVHYNGPSKAGYVDFENGQWATDDIPDDLNSIRAAPGEFRAIMEMPSFYSHGLPRCSPYKKLTECQLKNPISGLLEYAQFASQTCEFNMIEQSGPPHEPRFKFQVVINGREFPPAEAGSKKVAKQDAAMKAMTILLEEAKAKDSGKSEESSHYSTEKESEKTAESQTPTPSATSFFSGKSPVTTLLECMHKLGNSCEFRLLSKEGPAHEPKFQYCVAVGAQTFPSVSAPSKKVAKQMAAEEAMKALHGEATNSMASDNQPEGMISESLDNLESMMPNKVRKIGELVRYLNTNPVGGLLEYARSHGFAAEFKLVDQSGPPHEPKFVYQAKVGGRWFPAVCAHSKKQGKQEAADAALRVLIGENEKAERMGFTEVTPVTGASLRRTMLLLSRSPEAQPKTLPLTGSTFHDQIAMLSHRCFNTLTNSFQPSLLGRKILAAIIMKKDSEDMGVVVSLGTGNRCVKGDSLSLKGETVNDCHAEIISRRGFIRFLYSELMKYNSQTAKDSIFEPAKGGEKLQIKKTVSFHLYISTAPCGDGALFDKSCSDRAMESTESRHYPVFENPKQGKLRTKVENGEGTIPVESSDIVPTWDGIRLGERLRTMSCSDKILRWNVLGLQGALLTHFLQPIYLKSVTLGYLFSQGHLTRAICCRVTRDGSAFEDGLRHPFIVNHPKVGRVSIYDSKRQSGKTKETSVNWCLADGYDLEILDGTRGTVDGPRNELSRVSKKNIFLLFKKLCSFRYRRDLLRLSYGEAKKAARDYETAKNYFKKGLKDMGYGNWISKPQEEKNFYLCPV
B6: LARP7: host protein, UniProt Q4G0J3 (protein, UniProt Q4G0J3 1-582, looked up)
La-related protein 7: METESGNQEKVMEEESTEKKKEVEKKKRSRVKQVLADIAKQVDFWFGDANLHKDRFLREQIEKSRDGYVDISLLVSFNKMKKLTTDGKLIARALRSSAVVELDLEGTRIRRKKPLGERPKDEDERTVYVELLPKNVNHSWIERVFGKCGNVVYISIPHYKSTGDPKGFAFVEFETKEQAAKAIEFLNNPPEEAPRKPGIFPKTVKNKPIPALRVVEEKKKKKKKKGRMKKEDNIQAKEENMDTSNTSISKMKRSRPTSEGSDIESTEPQKQCSKKKKKRDRVEASSLPEVRTGKRKRSSSEDAESLAPRSKVKKIIQKDIIKEASEASKENRDIEISTEEEKDTGDLKDSSLLKTKRKHKKKHKERHKMGEEVIPLRVLSKSEWMDLKKEYLALQKASMASLKKTISQIKSESEMETDSGVPQNTGMKNEKTANREECRTQEKVNATGPQFVSGVIVKIISTEPLPGRKQVRDTLAAISEVLYVDLLEGDTECHARFKTPEDAQAVINAYTEINKKHCWKLEILSGDHEQRYWQKILVDRQAKLNQPREKKRGTEKLITKAEKIRLAKTQQASKHIRFSEYD

The first assay has as its system gRNA of HCoV-OC43. It counts as binding. The conditions noted are these: type n_48_v: 48 hours post-infection, infected cells, OC43 Probe I; unweighted spectral count.
For the molecule B1, the “target (spectral count, OC43 Probe I RNP capture)” value worked out at 10.

Consider B2, for which the “target (spectral count, OC43 Probe I RNP capture)” value was 6.

As to B3, the “target (spectral count, OC43 Probe I RNP capture)” value came to 12.

As to B4, the “target (spectral count, OC43 Probe I RNP capture)” value is given as 14.

As to B5, the “target (spectral count, OC43 Probe I RNP capture)” value was 11.

With B6, the “target (spectral count, OC43 Probe I RNP capture)” value is 6.

The assay is the same for the next values; noted with them: type n_48_v: 48 hours post-infection, no-probe control on infected cells.
B1: the “background (spectral count, no-probe control)” value was found to be 2.

Turning to B2, the “background (spectral count, no-probe control)” value came out at 1.

As to B3, the “background (spectral count, no-probe control)” value is reported as 2.

As for B4, the “background (spectral count, no-probe control)” value came out at 3.

Take B5: the “background (spectral count, no-probe control)” value stood at 2.

Take B6: the “background (spectral count, no-probe control)” value was found to be 1.

The subject of another assay is HCoV-OC43 gRNA and sgRNA. Format: binding. The note with it: 24 hpi; type n_24_v; tested against no-probe control; FDR<10%.
On to B1, for which the “target (unweighted spectral count, OC43 Probe II capture)” value turned out to be 4.

The assay is the same for the next values; noted with them: 36 hpi; type n_36_v; tested against no-probe control; FDR<10%.
For the molecule B1, the “target (unweighted spectral count, OC43 Probe II capture)” value is on record as 7.

On to B3, for which the “target (unweighted spectral count, OC43 Probe II capture)” value is 14.

With B6, the “target (unweighted spectral count, OC43 Probe II capture)” value is reported as 7.

The same assay, now with this note: OC43 Probe II, 12 hpi (type n_12_v), infected cells; tested against no-probe control.
B3: the “target (unweighted spectral count)” value was 31.

Still in this assay, the particulars now being: OC43 Probe II, 24 hpi (type n_24_v), infected cells; tested against no-probe control.
In the case of B3, the “target (unweighted spectral count)” value turned out to be 12.

Still in this assay, the particulars now being: type n_48_v; 48 hpi; OC43 Probe II capture on infected cells.
Consider B1, for which the “target (unweighted spectral count, OC43 Probe II)” value worked out at 8.

Consider B2, for which the “target (unweighted spectral count, OC43 Probe II)” value was 9.

For the molecule B4, the “target (unweighted spectral count, OC43 Probe II)” value is on record as 22.

On to B5, for which the “target (unweighted spectral count, OC43 Probe II)” value worked out at 11.

Consider B6, for which the “target (unweighted spectral count, OC43 Probe II)” value was 9.

The same assay, now with this note: type n_48_v; 48 hpi; no-probe control on infected cells.
In the case of B1, the “background (unweighted spectral count, no-probe control)” value came out at 2.

On to B2, for which the “background (unweighted spectral count, no-probe control)” value is recorded as 1.

As for B4, the “background (unweighted spectral count, no-probe control)” value stood at 3.

Turning to B5, the “background (unweighted spectral count, no-probe control)” value is recorded as 2.

Regarding B6, the “background (unweighted spectral count, no-probe control)” value turned out to be 1.

Still in this assay, the particulars now being: type s_36_m; HCoV-OC43-infected HCT-8 cells, 36 hpi, Probe II.
Regarding B1, the “target (spectral count)” value amounted to 7.

On to B6, for which the “target (spectral count)” value is reported as 7.

The assay is the same for the next values; noted with them: type s_36_m; uninfected-probe control, 36 hpi, Probe II.
As for B1, the “background (spectral count)” value was found to be 1.

Consider B6, for which the “background (spectral count)” value came to 1.

For the origin of these results see US20230407373A1 (priority 2020, published 2023).
